Holding throughout (assay): EMSA
On the technique in general: In EMSA bound probe runs differently from free probe, usually more slowly.

One data set has as its target T1, VapB1;VapC1 (UniProt P0CW29+P9WFC1).
T1 sequence 1: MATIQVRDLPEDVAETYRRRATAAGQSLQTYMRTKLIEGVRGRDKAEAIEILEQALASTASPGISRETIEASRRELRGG
T1 sequence 2: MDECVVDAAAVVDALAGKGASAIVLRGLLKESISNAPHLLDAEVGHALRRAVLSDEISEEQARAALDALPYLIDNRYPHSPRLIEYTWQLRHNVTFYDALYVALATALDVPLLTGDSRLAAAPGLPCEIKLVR

The target of data set [1] is T2, VapB29;VapC29 (UniProt P9WJ37+P9WF79).
T2 sequence 1: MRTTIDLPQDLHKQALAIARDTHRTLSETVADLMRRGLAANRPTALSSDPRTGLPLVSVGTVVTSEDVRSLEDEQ
T2 sequence 2: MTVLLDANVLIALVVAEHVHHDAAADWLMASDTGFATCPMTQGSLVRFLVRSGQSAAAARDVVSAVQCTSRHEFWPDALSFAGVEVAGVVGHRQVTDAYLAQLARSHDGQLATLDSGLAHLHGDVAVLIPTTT

In data set [2] the target is T3, VapB29;VapC29 (Mycobacterium tuberculosis …, UniProt P9WJ37;P9WF79 1-75;1-133, |).
T3 sequence 1: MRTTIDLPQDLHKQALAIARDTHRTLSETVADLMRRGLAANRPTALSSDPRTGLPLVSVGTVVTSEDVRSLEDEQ
T3 sequence 2: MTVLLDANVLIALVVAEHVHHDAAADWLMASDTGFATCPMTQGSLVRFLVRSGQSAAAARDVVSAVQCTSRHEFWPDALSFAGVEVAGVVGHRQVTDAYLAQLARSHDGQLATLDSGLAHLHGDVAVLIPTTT
Conditions: protein: recombinant;recombinant; tags: ;C-terminal His; label: 3' DIG-ddUTP; blunt.

For “AGCGGAGTTCACCGGCTAAGAATGCCGGCTTATCCACCGGGCGTTTCGGCGGCATCGATGGCCTTCTCTAACCGGTCGAGCACCGCGCGCAGATCGGCCAG (double strand) [vapBC1 promoter 101 bp]”, in the data set with VapB1;VapC1, the binding entry is given as “no binding”.
With “GTGGATAAGCCGGCATTCTTAGCCGGTGAACTCCGCTATGGCTACCATTCAAGTTCGGGATTTGCCCGAAGATGTCGCCGAAACCTATCGACGGCGCGCCACCGCAGCGGGGCAGTCGCTGCAGACGTATATGCGCACCAAGCTCATCGA (double strand) [vapBC1 promoter 150 bp]”, the binding entry with VapB29;VapC29 [1] and with VapB1;VapC1 was “no binding” each time.
Turning to “CATGGGAATACGATACCAATGGCTTCCCACTCAGGTGCGGAAGTCGACTCACCGCCGTTACCACGACCCCGACGACCACACCGTCAGCTGCGGCGCGGCGTGGCGACTATTGGTCGCTAGTGTCGTGCTCCCGATTCGGGTCCTTTGTATCTGATGACGT (double strand) [vapBC27 promoter 160 bp]”, the binding entry with VapB29;VapC29 [1] is reported as “no binding”.

B1: Oligo 5 (50 bp vapBC29 promoter, control) (dsDNA)
DNA 1: GGTGAGCGTCGGCGCGCGCATCACGATGCAGCGATGTTAGGATGAGGCGG
DNA 2: CCGCCTCATCCTAACATCGCTGCATCGTGATGCGCGCGCCGACGCTCACC
Take B1: the binding result with VapB29;VapC29 [2] is “binds”.

The record behind these values is article PMC6118392, “VapC proteins from Mycobacterium tuberculosis share ribonuclease sequence specificity but differ in regulation and toxicity” (PLoS ONE, 2018).
